Experimental data taken from publication PMC4712668 (RNA, 2016).

T1: CLIP-6Myc-FLAG-TEV-Myc-Drosha (human, UniProt Q9NRR4 1-1374, CLIP-surface 547 or CLIP-surface 488 fluorophore on the CLIP tag)
T1 sequence: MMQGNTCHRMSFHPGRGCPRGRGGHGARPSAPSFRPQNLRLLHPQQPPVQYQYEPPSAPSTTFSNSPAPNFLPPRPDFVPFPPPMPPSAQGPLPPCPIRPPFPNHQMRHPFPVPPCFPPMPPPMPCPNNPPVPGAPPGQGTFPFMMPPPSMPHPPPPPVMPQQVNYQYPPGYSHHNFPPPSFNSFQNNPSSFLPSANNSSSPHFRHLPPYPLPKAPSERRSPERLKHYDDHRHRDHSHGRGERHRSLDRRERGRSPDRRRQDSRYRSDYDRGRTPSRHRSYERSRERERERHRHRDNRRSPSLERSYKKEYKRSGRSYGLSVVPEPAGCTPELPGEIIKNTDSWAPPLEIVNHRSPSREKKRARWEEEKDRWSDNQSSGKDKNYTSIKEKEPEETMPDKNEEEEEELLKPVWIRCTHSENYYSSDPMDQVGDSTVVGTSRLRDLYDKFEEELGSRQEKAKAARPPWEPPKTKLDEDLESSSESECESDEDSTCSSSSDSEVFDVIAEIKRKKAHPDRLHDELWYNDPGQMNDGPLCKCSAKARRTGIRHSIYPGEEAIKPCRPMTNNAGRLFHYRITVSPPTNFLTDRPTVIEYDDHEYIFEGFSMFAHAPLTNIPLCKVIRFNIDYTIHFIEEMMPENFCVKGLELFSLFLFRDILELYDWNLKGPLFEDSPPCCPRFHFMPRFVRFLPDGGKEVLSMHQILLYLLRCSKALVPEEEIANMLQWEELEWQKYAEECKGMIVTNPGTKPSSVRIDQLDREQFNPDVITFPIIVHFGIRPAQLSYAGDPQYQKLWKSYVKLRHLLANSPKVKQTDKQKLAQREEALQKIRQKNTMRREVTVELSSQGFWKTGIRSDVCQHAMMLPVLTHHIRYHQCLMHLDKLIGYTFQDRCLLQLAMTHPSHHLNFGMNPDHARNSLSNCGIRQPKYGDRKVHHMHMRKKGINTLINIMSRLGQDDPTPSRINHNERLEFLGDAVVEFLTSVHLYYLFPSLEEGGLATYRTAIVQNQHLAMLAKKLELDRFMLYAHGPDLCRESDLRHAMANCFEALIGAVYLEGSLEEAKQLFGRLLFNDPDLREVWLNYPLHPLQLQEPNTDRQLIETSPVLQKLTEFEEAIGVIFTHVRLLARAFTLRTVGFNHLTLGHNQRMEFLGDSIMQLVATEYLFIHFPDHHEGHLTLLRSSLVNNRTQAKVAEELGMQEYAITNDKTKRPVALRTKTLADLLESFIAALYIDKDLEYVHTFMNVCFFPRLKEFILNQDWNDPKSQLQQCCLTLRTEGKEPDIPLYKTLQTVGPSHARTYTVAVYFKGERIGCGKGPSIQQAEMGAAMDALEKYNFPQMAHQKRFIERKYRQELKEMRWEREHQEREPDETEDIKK

B1: SNAP-DGCR8 (natural protein)
chain: METDESPSPLPCGPAGEAVMESRARPFQALPREQSPPPPLQTSSGAEVMDVGSGGDGQSELPAEDPFNFYGASLLSKGSFSKGRLLIDPNCSGHSPRTARHAPAVRKFSPDLKLLKDVKISVSFTESCRSKDRKVLYTGAERDVRAECGLLLSPVSGDVHACPFGGSVGDGVGIGGESADKKDEENELDQEKRVEYAVLDELEDFTDNLELDEEGAGGFTAKAIVQRDRVDEEALNFPYEDDFDNDVDALLEEGLCAPKKRRTEEKYGGDSDHPSDGETSVQPMMTKIKTVLKSRGRPPTEPLPDGWIMTFHNSGVPVYLHRESRVVTWSRPYFLGTGSIRKHDPPLSSIPCLHYKKMKDNEEREQSSDLTPSGDVSPVKPLSRSAELEFPLDEPDSMGADPGPPDEKDPLGAEAAPGALGQVKAKVEVCKDESVDLEEFRSYLEKRFDFEQVTVKKFRTWAERRQFNREMKRKQAESERPILPANQKLITLSVQDAPTKKEFVINPNGKSEVCILHEYMQRVLKVRPVYNFFECENPSEPFGASVTIDGVTYGSGTASSKKLAKNKAARATLEILIPDFVKQTSEEKPKDSEELEYFNHISIEDSRVYELTSKAGLLSPYQILHECLKRNHGMGDTSIKFEVVPGKNQKSEYVMACGKHTVRGWCKNKRVGKQLASQKILQLLHPHVKNWGSLLRMYGRESSKMVKQETSDKSVIELQQYAKKNKPNLHILSKLQEEMKRLAEEREETRKKPKMSIVASAQPGGEPLCTVDV
modifications: SNAP-surface Alexa fluor 546 or SNAP-surface Alexa fluor 647 on the SNAP tag
B2: FLAG-SNAP-DGCR8 (natural protein)
chain: METDESPSPLPCGPAGEAVMESRARPFQALPREQSPPPPLQTSSGAEVMDVGSGGDGQSELPAEDPFNFYGASLLSKGSFSKGRLLIDPNCSGHSPRTARHAPAVRKFSPDLKLLKDVKISVSFTESCRSKDRKVLYTGAERDVRAECGLLLSPVSGDVHACPFGGSVGDGVGIGGESADKKDEENELDQEKRVEYAVLDELEDFTDNLELDEEGAGGFTAKAIVQRDRVDEEALNFPYEDDFDNDVDALLEEGLCAPKKRRTEEKYGGDSDHPSDGETSVQPMMTKIKTVLKSRGRPPTEPLPDGWIMTFHNSGVPVYLHRESRVVTWSRPYFLGTGSIRKHDPPLSSIPCLHYKKMKDNEEREQSSDLTPSGDVSPVKPLSRSAELEFPLDEPDSMGADPGPPDEKDPLGAEAAPGALGQVKAKVEVCKDESVDLEEFRSYLEKRFDFEQVTVKKFRTWAERRQFNREMKRKQAESERPILPANQKLITLSVQDAPTKKEFVINPNGKSEVCILHEYMQRVLKVRPVYNFFECENPSEPFGASVTIDGVTYGSGTASSKKLAKNKAARATLEILIPDFVKQTSEEKPKDSEELEYFNHISIEDSRVYELTSKAGLLSPYQILHECLKRNHGMGDTSIKFEVVPGKNQKSEYVMACGKHTVRGWCKNKRVGKQLASQKILQLLHPHVKNWGSLLRMYGRESSKMVKQETSDKSVIELQQYAKKNKPNLHILSKLQEEMKRLAEEREETRKKPKMSIVASAQPGGEPLCTVDV
modifications: SNAP-surface 546 Alexa fluorophore on the SNAP tag in a portion of the sample

Columns and labels:
[1] = target: T1, CLIP-6Myc-FLAG-TEV-Myc-Drosha; assay: single-molecule immunoprecipitation with subunit counting by photobleaching
[2] = target: the molecule itself; assay: as above
[3] = target: the molecule itself; assay: SEC + other: glycerol gradient centrifugation

Binder	stoichiometry N [1]	stoichiometry N [2]	stoichiometry N [3]
B1	2 DGCR8 per Drosha	2 DGCR8 per complex	
B2			2 SNAP-DGCR8 per complex
